Test results from paper PMC9304066, “H2S biogenesis by cystathionine beta-synthase: mechanism of inhibition by aminooxyacetic acid and unexpected role of serine” (Cellular and Molecular Life Sciences: CMLS, 2022).

What was measured:
Format in all cases: biochemical, Saccharomyces cerevisiae
[1] = substrate: N[C@@H](CS)C(=O)O; assay: CBS H2S production assay (AzMC fluorometric), tScCBS; settings: other: tScCBS, Cys + Hcy, pH 8.6, 37.0 °C
Method: CBS H2S production assay. H2S-producing activity of CBS, utilizing Cys and Hcy, was determined using a fluorometric assay employing the H2S-selective fluorescent probe 7-azido-4-methylcoumarin (AzMC) as described previously. The reaction mixture in a total volume of 200 µL contained 50 mM Tris–HCl pH 8.6, 5 μM PLP, 2 mM Hcy, 10 μM AzMC and 500 ng tScCBS or HsCBS. The plate was incubated for 10 min at 37°C and the enzymatic activity was triggered by adding 0–50 mM Cys. The fluorescence of the mixtures at 450 nm (excited at 365 nm) was followed for 2 h at 37°C. All measurements were performed in triplicates using Tecan Infinite 200 PRO microplate reader. Kinetic data were analyzed using GraphPad Prism software.

[2] = substrate: N[C@@H](CO)C(=O)O; assay: CBL-LDH coupled-coupled CBS assay, tScCBS; settings: other: tScCBS, substrate varied with 2 mM Hcy, pH 8.9
Method: (§1) CBS coupled-coupled assay. CBS canonical activity utilizing Ser and Hcy was determined using cystathionine beta-lyase (CBL) and lactate-dehydrogenase (LDH) coupled-coupled assay as described previously with a few modifications. Native L-LDH from rabbit muscle was purchased from Sigma (catalog no. L2500) and recombinant CBL was purchased from Creative Enzymes (catalog no. NATE-1146). In a final volume of 150 µL, the reaction mixture contained 50 mM Tris–HCl pH 8.9, 20 µM PLP, 500 µM NADH, 1.3 µM LDH, 0.1 µM CBL, 0–20 mM Ser (or 0–50 mM Cys) and 500 ng of tScCBS or HsCBS. Assays with HsCBS were carried out in the absence or presence of 500 µM CBS allosteric activator S-adenosylmethionine (SAM). The reaction was triggered by the addition of 2 mM Hcy and the oxidation of NADH to NAD^+ was followed by monitoring the decrease in absorbance at 340 nm over time (ε340 = 6220 M^−1.cm^−1). […] All measurements were performed in triplicates using Tecan Infinite 200 PRO microplate reader. Kinetic data were analyzed using GraphPad Prism software.

[3] = substrate: N[C@@H](CS)C(=O)O; assay: CBL-LDH coupled-coupled CBS assay, tScCBS; settings: other: tScCBS, substrate varied with 2 mM Hcy, pH 8.9
Method: as §1

B1: tScCBS (Saccharomyces cerevisiae S288C) (protein)
chain: MTKSEQQADSRHNVIDLVGNTPLIALKKLPKALGIKPQIYAKLELYNPGGSIKDRIAKSMVEEAEASGRIHPSRSTLIEPTSGNTGIGLALIGAIKGYRTIITLPEKMSNEKVSVLKALGAEIIRTPTAAAWDSPESHIGVAKKLEKEIPGAVILDQYNNMMNPEAHYFGTGREIQRQLEDLNLFDNLRAVVAGAGTGGTISGISKYLKEQNDKIQIVGADPFGSILAQPENLNKTDITDYKVEGIGYDFVPQVLDRKLIDVWYKTDDKPSFKYARQLISNEGVLVGGSSGSAFTAVVKYCEDHPELTEDDVIVAIFPDSIRSYLTKFVDDEWLKKNNLWDDDVL
notes: 6xHis (C); made in house
Km [1]: 6700 ± 1500 µM
kcat [1]: 3.4 ± 0.3 s⁻¹
kcat/Km [1]: 510 M⁻¹ s⁻¹
Km [2]: 2000 ± 400 µM
Vmax [2]: 4.18 µmol/min/mg
kcat [2]: 2.7 ± 0.1 s⁻¹
kcat/Km [2]: 1340 M⁻¹ s⁻¹
Km [3]: 2500 ± 200 µM
kcat [3]: 1.7 ± 0.1 s⁻¹
kcat/Km [3]: 690 M⁻¹ s⁻¹
